We go through one molecule from patent publication US11419948B2, “Functionalized microgels with fibrin binding elements” (Georgia Tech Research Corporation, priority 2013, dated 2022).

The target in the assay is T1, fibrinogen (Homo sapiens, UniProt P02671+P02675+P02679).
T1 sequence (P02671 20-629 limits assumed): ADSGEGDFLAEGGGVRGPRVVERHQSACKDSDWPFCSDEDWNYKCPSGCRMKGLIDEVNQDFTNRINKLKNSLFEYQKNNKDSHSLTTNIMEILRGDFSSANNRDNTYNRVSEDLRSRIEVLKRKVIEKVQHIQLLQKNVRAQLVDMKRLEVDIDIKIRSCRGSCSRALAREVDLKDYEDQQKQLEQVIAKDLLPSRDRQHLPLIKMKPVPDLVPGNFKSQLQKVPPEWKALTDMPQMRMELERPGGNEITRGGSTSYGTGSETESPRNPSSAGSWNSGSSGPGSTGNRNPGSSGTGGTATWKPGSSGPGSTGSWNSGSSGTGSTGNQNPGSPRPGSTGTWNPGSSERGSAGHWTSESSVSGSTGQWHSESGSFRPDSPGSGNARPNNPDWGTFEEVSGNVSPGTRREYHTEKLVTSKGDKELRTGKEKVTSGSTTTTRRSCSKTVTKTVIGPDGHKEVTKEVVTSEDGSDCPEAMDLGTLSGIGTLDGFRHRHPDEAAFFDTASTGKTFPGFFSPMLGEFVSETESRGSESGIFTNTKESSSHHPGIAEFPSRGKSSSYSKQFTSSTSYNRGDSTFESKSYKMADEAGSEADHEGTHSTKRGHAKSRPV
T1 sequence (P02675 31-491): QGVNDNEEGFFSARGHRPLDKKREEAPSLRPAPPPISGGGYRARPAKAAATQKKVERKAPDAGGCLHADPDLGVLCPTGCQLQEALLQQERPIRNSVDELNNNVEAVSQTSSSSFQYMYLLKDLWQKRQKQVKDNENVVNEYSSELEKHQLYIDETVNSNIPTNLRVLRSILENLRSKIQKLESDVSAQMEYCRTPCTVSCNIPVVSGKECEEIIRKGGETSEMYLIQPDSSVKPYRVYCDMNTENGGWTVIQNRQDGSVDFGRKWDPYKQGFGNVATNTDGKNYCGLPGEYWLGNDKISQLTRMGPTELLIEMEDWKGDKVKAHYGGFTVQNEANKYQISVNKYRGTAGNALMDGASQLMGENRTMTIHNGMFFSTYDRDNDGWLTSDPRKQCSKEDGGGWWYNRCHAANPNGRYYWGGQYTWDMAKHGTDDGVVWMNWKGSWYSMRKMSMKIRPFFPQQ
T1 sequence (P02679 27-453): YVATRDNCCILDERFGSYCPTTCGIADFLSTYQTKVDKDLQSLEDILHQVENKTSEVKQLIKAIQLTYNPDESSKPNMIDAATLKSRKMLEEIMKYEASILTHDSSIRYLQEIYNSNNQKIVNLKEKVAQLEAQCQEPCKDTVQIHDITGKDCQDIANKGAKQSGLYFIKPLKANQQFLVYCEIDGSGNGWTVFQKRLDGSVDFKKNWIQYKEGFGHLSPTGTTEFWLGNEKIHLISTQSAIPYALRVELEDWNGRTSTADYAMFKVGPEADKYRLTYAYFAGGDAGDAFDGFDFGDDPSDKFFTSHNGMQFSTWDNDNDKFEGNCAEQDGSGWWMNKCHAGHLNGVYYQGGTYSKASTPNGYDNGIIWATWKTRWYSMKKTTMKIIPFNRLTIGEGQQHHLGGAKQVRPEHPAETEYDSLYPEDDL
Kind of assay: Clottability assay (protein incorporation into clot). In kind it is biochemical. Particulars: all H6 concentrations tested. How it is done:
The clottability assay involved clotting purified fibrinogen or fibrinogen in the presence of H6 or S11, subsequently removing the gelled clot from solution, and measuring the amount of protein that was not incorporated into the clot. The same molar ratios of H6 and S11 to fibrinogen were investigated as per the turbidity assay. Soluble protein concentrations were measured using standard Quant-It assay protocols, and results were normalized to unpolymerized fibrinogen or fibrinogen-nanobody solutions of identical protein composition.

B1: H6: fibrin-specific human sdFv clone from phage biopanning, SEQ ID NO: 1 (protein)
VHH: QVQLLESGGGLVQPGGSLRLSCAASGDRFTHNDMGWVRQAPGKGLEWVSTIPTTDGSTYYADSVKGRFTISRDNSKSTLYLQMNSLRAEDTAVYYCATGYMWKAPAYVKYWGQGTLVTVSSAAAEQKLISEEDLNSAAHYTDIG
For the molecule B1, the “protein incorporation (clottability)” value is on record as “greater than 80%”.
